Reference: patent US20240141059A1 (Bristol-Myers Squibb, published 2024)

How the values were obtained:
Test in all cases: SPR, FcgR analyte on protein A captured dAb-Fc
hCD32a-H131 = target: T1, hCD32a-H131 (human, UniProt P12318 34-217)
T1 construct: also called FcgRIIa-H131
T1 sequence (looked up): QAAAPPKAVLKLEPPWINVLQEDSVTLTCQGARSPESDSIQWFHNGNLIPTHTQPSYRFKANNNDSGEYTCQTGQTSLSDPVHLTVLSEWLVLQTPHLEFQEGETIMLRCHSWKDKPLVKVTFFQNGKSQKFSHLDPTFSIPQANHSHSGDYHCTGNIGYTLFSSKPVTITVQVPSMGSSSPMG

hCD32a-R131 = target: T2, hCD32a-R131 (human, UniProt P12318 34-217)
T2 construct: also called FcgRIIa-R131
T2 sequence (looked up): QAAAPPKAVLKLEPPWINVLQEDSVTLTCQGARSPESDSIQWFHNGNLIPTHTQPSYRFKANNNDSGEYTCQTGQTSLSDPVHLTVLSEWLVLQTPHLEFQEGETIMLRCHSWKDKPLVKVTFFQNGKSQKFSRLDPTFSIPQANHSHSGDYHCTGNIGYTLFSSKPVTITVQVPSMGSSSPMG

hCD32b = target: T3, hCD32b (human, UniProt P31994 43-217)
T3 construct: also called FcgRIIb
T3 sequence (looked up): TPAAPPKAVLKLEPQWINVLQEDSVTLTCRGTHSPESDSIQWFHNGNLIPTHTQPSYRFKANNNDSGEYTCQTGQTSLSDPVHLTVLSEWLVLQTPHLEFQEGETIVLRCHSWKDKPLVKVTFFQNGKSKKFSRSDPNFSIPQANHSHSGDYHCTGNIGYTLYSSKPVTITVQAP

hCD16a-V158 = target: T4, hCD16a-V158 (human, UniProt P08637 17-208, limits assumed)
T4 construct: also called FcgRIIIa-V158

hCD16b-NA2 = target: T5, hCD16b-NA2 (human, UniProt O75015 17-200, limits assumed)
T5 construct: also called FcgRIIIb-NA2

Measured: Kd

T4 sequence (P08637 17-208 F176V limits assumed): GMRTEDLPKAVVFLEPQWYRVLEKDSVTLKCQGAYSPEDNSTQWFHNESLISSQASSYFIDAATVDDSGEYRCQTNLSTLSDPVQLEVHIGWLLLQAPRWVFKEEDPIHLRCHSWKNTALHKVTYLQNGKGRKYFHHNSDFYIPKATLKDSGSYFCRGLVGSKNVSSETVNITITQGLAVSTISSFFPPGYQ
T5 sequence (O75015 17-200 N65S limits assumed): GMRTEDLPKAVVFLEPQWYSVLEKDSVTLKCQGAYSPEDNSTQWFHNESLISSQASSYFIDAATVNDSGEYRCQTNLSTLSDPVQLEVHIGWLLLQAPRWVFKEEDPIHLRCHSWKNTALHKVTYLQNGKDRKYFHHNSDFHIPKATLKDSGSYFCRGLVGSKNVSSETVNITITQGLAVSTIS

B1: 3h56-269-IgG1.1f (Fc fusion)
chain: EVQLLESGGGLVQPGGSLRLSCAASGFTFRDYEMWWVRQAPGKGLERVSAINPQGTRTYYADSVKGRFTISRDNSKNTLYLQMNSLRAEDTAVYYCAKLPFRFSDRGQGTLVTVSSASTEPKSCDKTHTCPPCPAPEAEGAPSVFLFPPKPKDTLMISRTPEVTCVVVDVSHEDPEVKFNWYVDGVEVHNAKTKPREEQYNSTYRVVSVLTVLHQDWLNGKEYKCKVSNKALPSSIEKTISKAKGQPREPQVYTLPPSREEMTKNQVSLTCLVKGFYPSDIAVEWESNGQPENNYKTTPPVLDSDGSFFLYSKLTVDKSRWQQGNVFSCSVMHEALHNHYTQKSLSLSPGK
> 5 µM: all assays above
